In data set [1] the target is T1, BCMA on H929 cells (Homo sapiens, UniProt Q02223, N81S).
T1 construct: host or cells: H929
T1 sequence (Q02223 1-184 N81S): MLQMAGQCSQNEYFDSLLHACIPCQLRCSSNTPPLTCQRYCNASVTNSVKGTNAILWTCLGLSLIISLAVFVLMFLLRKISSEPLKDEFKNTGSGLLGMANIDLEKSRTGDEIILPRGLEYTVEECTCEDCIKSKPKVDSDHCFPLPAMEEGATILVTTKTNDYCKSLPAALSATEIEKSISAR
Nature of the data set: FACS binding to native BCMA on H929 myeloma cells. The procedure: Approximately 10 to 40×10^6 of H929 myeloma cells were resuspended in a staining solution (2% goat serum, 1% rabbit serum, 0.02% azide in PBS) and aliquoted into round-bottom, 96-well plate (Corning Incorp., Acton, Mass.) as per the experiment design. The cells were incubated at 4 degrees celsius for 30 minutes to block non-specific sites. The antibodies were titrated into the staining solution. The cells were rinsed in a rinse solution (PBS+0.02% azide) by resuspending the cells in 200 ul/well. The cells were centrifuged at 1500 rpm at 4 degrees celsius for 7 minutes. The rinse solution was removed and the rinse step was repeated. […] The cells/antibodies were rinsed as described above to remove excess/unbound antibody. After the last rinse, the cells were resuspended in 200 ul of rinse solution with a drop of staining solution added to keep the cells from aggregating.
The antibodies were tested for binding to BCMA endogenously-expressed on a variety of cells, including the H929 cell line, which were developed from B-lymphocytes from a myeloma/plasmacytoma patient (ATCC, Manassa, Va.) using standard FACs techniques. […] The supernatants were removed and the cell pellets were resuspended in 0.2 mL/tube 4% paraformaldehyde in PBS and analyzed by flow cytometry
In general terms: In flow cytometry, cells or beads pass a laser one at a time.

Data set [2] deals with T2, human BCMA (Homo sapiens, UniProt Q02223, N81S).
T2 construct: expressed in transfected cells
T2 sequence (Q02223 1-184 N81S): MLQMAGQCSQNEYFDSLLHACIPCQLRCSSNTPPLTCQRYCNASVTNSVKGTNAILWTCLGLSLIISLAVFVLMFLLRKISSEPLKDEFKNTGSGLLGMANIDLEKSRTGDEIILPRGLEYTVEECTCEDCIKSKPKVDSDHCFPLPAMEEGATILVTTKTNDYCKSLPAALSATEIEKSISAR
Nature of the data set: FACS binding on cells transiently transfected to express full length BCMA. On the procedure: An important criterion is exquisite selectivity for wild-type human BCMA expressed on the surface of cells. FACS binding on cells transiently transfected to express full length BCMA, TACI, or BAFF-R was performed using standard techniques. Approximately 40×10^6 of the transiently-transfected target cells were resuspended in a staining solution (2% goat serum, 1% rabbit serum, 0.02% azide in PBS) and aliquoted into round-bottom, 96-well plate (Corning Incorp., Acton, Mass.) as per the experiment design. The cells were incubated at 4 degrees celsius for 30 minutes to block non-specific sites. The antibodies were titrated into the staining solution. The cells were rinsed in a rinse solution (PBS+0.02% azide) by resuspending the cells in 200 ul/well. The cells were centrifuged at 1500 rpm at 4 degrees celsius for 7 minutes. The rinse solution was removed and the rinse step was repeated. The cells were resuspended in the appropriate antibody solution (see the matrix in TABLE 4) at 30 ul/well and incubated at 4 degrees celsius for 30 minutes. […] For the mouse IgG1 negative control and the two mouse antibodies (1.183 and 1.288), the secondary reagent was an anti-mouse IgG-PE conjugate (BD Pharmingen Cat. 550589). The cells/antibodies were rinsed as described above to remove excess/unbound antibody. […] Samples were read at 532 nm wavelength on FACS. […]

Data set [3] relates to H929. Nature of the data set: CellTiter-Glo Luminescent Cell Viability Assay, H929. In kind it is cell-based, human. To be noted: ADCs of hybridoma-derived antibodies. The procedure:
The ADCs were tested for the ability to target and kill BCMA-expressing myeloma cells. The CellTiter-Glo® Luminescent Cell Viability Assay is a homogeneous method to determine the number of viable cells in culture based on quantitation of the ATP present, which signals the presence of metabolically active cells. The CellTiter-Glo® Assay is applicable to cytotoxicity assays (see http://www.promega.com/products/cell-health-assays/cell-viability-assays/celltiter_glo-luminescent-cell-viability-assay/for more information). The cell viability assay was used to assess the relative killing capacity of various ADCs on various multiple myeloma cell lines and B-cell lines. The protocol provided in the Cell Titer-Glo kit (Promega G7572) was followed. […] The ADCs were diluted into a 10× stock to create 500 nM maytansine drug equivalents. […] 10 ul of the 10×ADC dilution series was added to the 90 ul of cells in media (triplicate wells). The highest concentration of ADC was approximately 50 nM maytansine drug equivalents, and the lowest concentration of ADC was approximately 50 pM maytansine drug equivalents. An isotype control ADC (an anti-streptavidin huIgG1 conjugated to MCC-DM1) was included, as well as a media-only control. The plates were incubated at 37° C., 5% CO2 for 96 hours. After incubation, 100 ul of the Substrate Solution (Promega G7572) was added to each well. Luminescence was read on an EnVision™ Multilabel reader (PerkinElmer) or Analyst HT plate reader (LJL Biosciences). The data was analyzed and graphed using GraphPad Prism™ to determine the relative efficacy of the ADCs on various cancer cell lines.
The 2A1CV5-MCC-DM1, 32B5-MCC-DM1 and 29C12-MCC-DM1 ADCs were tested for the ability to target and kill BCMA-expressing myeloma cells (H929). The CellTiter-Glo® Luminescent Cell Viability Assay is a homogeneous method to determine the number of viable cells in culture based on quantitation of the ATP present, which signals the presence of metabolically active cells. The CellTiter-Glo® Assay is applicable to cytotoxicity assays (see http://www.promega.com/products/cell-health-assays/cell-viability-assays/celltiter_glo-luminescent-cell-viability-assay/for more information). The cell viability assay was used to assess the relative killing capacity of various ADCs on various multiple myeloma cell lines and B-cell lines. The protocol provided in the Cell Titer-Glo kit (Promega G7572) was followed. […] The ADCs were diluted into a 10× stock to create 500 nM maytansine drug equivalents. […] 10 ul of the 10×ADC dilution series was added to the 90 ul of cells in media (triplicate wells). The highest concentration of ADC was approximately 50 nM maytansine drug equivalents, and the lowest concentration of ADC was approximately 50 pM maytansine drug equivalents. An isotype control ADC (an anti-streptavidin huIgG1 conjugated to MCC-DM1) was included, as well as a media-only control. The plates were incubated at 37° C., 5% CO2 for 96 hours. After incubation, 100 ul of the Substrate Solution (Promega G7572) was added to each well. Luminescence was read on an EnVision™ Multilabel reader (PerkinElmer) or Analyst HT plate reader (LJL Biosciences). The data was analyzed and graphed using GraphPad Prism™ to determine the relative efficacy of the ADCs on various cancer cell lines.
(Cellular ATP, detected with luciferase, serves as a proxy for viable cell number.)

B1: Ab-4: fully human anti-huBCMA mAb, Vh SEQ ID NO:212, Vl SEQ ID NO:246 (antibody, V domains shown)
VH: QVQLVQSGAEVKKPGASVKVSCKASGYTFTGHYIHWVRQAPGQGLEWMGWIYPNSGGTNYAQKFQGRVTMTRDTSISTAYMELSRLRSDDSAVYYCAREGMVTGDYYYYRMDVWGQGTTVIVSS
VL: QPVLTQPPSASASLGASVTLTCSLSSGYSNYKVDWYQQRPGKGPRFVMRVGIGGIVGSKGDGIPDRFSVLGSGLNRYLTIKNIQEEDESDFHCGADHGSGNNFVYVFGTGTKVTVLG
Turning to B1, the “binding to human BCMA on the surface of H929 myeloma cell line” value in data set [1] is “bound to human BCMA”. Moreover, the “BCMA (FACS binding)” value in data set [2] is “+ (A sample was considered positive for binding if the MFI was two times the negative control value)”.

B2: 29C12.1 ADC (conjugate)
VH: EVQLLESGGALVQPGGSLRLSCAASGFTFSSYAMNWVRQAPGKGLEWVSAISVGGDTYYADSVKGRFTISRDNSKNTLYLQMNSLRAEDTAVYYCAKDQVTMVRGVWYYYGLDVWGQGTTVTVSS
VL: DIVMIQSPLSLPVTPGEPASISCRSSQSLLHSNGNNYLDWYLQKPGQSPHLLISLGSNRTSGVPDRFSGSGSGTDFTLKISRVEAEDVGVYYCMQALQPPRRFGQGTKLEIKR
As for B2, the “cytotoxicity to huBCMA-expressing myeloma target cells (H929)” value (“cytotoxicity” for short) in data set [3] is listed as “showed cytotoxicity”.

B3: 32B5.1 ADC (conjugate)
VH: EVQLLESGGALVQPGGSLRLSCAASGFTFSSYAMNWVRQAPGKGLEWVSAISVGGDTYYADSVKGRFTISRDNSKNTLYLHVNSLSAEDSAVYYCAKDQVTLVRGVWYYYGLDVWGQGTTVTVSS
VL: VIVLIQSPLSLPVTPGEPASISCRSSQSLLHSNGNNYLDWYLQKPGQSPHLLISLGSNRTSGVPDRFSGSGSGTDFTLKISRVEAEDVGFYYCMQALQPPRRFGQGTKLEIKR
With B3, the “cytotoxicity” value in data set [3] is recorded as “showed cytotoxicity”.

B4: 35D2.1 ADC (conjugate)
VH: EVQLLESGGALVQPGGSLRLSCAASGFTFSSYAMNWVRQAPGKGLEWVSAISVGGGTYYADSVKGRFTISRDNSKNTLYLHVNSLRAEDTAVYYCAKDQVTMVRGVWYYYGLDVWGQGTTVTVSS
VL: VIVLIQSPLSLPVTPGEPASISCRSSQSLLHSNGNNYLDWYLQKPGQSPHLLISLGSNRTSGVPDRFSGSGSGTDFTLKISRVEAEDVGFYYCMQALQPPRRFGQGTKLEIKR
On to B4, for which the “cytotoxicity” value in data set [3] is listed as “showed cytotoxicity”.

B5: 33C7.1 ADC (conjugate)
VH: EVQLLESGGALVQPGGSLRLSCAASGFTFSSYAMNWVRQAPGKGLEWVSAISVGGDTYYADSVKGRFTISRDNSKNTLYLHVNSLSAEDSAVYYCAKDQVTLVRGVWYYYGLDVWGQGTTVTVSS
VL: VIVLIQSPLSLPVTPGEPASISCRSSQSLLHSNGNNYLDWYLQKPGQSPHLLISLGSNRTSGVPDRFSGSGSGTDFTLKISRVEAEDVGFYYCMQALQPPRRFGQGTKLEIKR
On to B5, for which the “cytotoxicity” value in data set [3] was “showed cytotoxicity”.

B6: 37B2.1 ADC (conjugate)
VH: EVQLLESGGALVQPGGSLRLSCAASGFTFSNYAMNWVRQAPGKGLEWVSAISVGGDTYYADSVKGRFTISRDNSKNTLYLHVNSLSAEDSAVYYCAKDQVTLVRGVWYYYGLDVWGQGTTVTVSS
VL: VIVLIQSPLSLPVTPGEPASISCRSSQSLLHSNGNNYLDWYLQKPGQSPHLLISLGSNRTSGVPDRFSGSGSGTDFTLKISRVEAEDVGFYYCMQALQPPRRFGQGTKLEIKR
With B6, the “cytotoxicity” value in data set [3] is “showed cytotoxicity”.

B7: 40D7.1 ADC (conjugate)
VH: EVQLLESGGALVQPGGSLRLSCAASGFTFSSYAMNWVRQAPGKGLEWVSAISVGGDTYYADSVKGRFTISRDNSKNTLYLQMNSLRAEDTAVYYCAKDQVTMVRGVWYYYGLDVWGQGTTVTVSS
VL: DIVMIQSPLSLPVTPGEPASISCRSSQSLLHSNGNNFLDWYLQKPGQSPHLLISLGSNRTSGVPDRLSGSGSGTDFTLKISRVEAEDVGIYYCMQALRPPRRFGQGTKLEIKR
In the case of B7, the “cytotoxicity” value in data set [3] is reported as “showed cytotoxicity”.

Source of the values: patent US10220090B2, “BCMA Antigen binding proteins” (Amgen Inc., priority 2012, dated 2019).
